Test results published in publication PMC7603204.

Substrate: C[C@H](N)C(=O)O
Test: purified protein
Details: 2 mM ATP, 2 mM PPi, 10 mM MgCl2, 30 mM KCl, 2 mM NaF, pH 7.2, 37 °C, amino acid activation

Protein	Km	kcat	kcat/Km
E. coli AlaRS (Escherichia coli K-12; C666A/R561C) (protein) SKSTAEIRQAFLDFFHSKGHQVVASSSLVPHNDPTLLFTNAGMNQFKDVFLGLDKRNYSRATTSQRCVRAGGKHNDLENVGYTARHHTFFEMLGNFSFGDYFKHDAIQFAWELLTSEKWFALPKERLWVTVYESDDEAYEIWEKEVGIPRERIIRIGDNKGAPYASDNFWQMGDTGPCGPCTEIFYDHGDHIWGGPPGSPEEDGDRYIEIWNIVFMQFNRQADGTMEPLPKPSVDTGMGLERIAAVLQHVNSNYDIDLFRTLIQAVAKVTGATDLSNKSLRVIADHIRSCAFLIADGVMPSNENRGYVLRRIIRRAVRHGNMLGAKETFFYKLVGPLIDVMGSAGEDLKRQQAQVEQVLKTEEEQFARTLERGLALLDEELAKLSGDTLDGETAFRLYDTYGFPVDLTADVCRERNIKVDEAGFEAAMEEQRRRAREASGFGADYNAMIRVDSASEFKGYDHLELNGKVTALFVDGKAVDAINAGQEAVVVLDQTPFYAESGGQVGDKGELKGANFSFAVEDTQKYGQAIGHIGKLAAGSLKVGDAVQADVDEARRARICLNHSATHLMHAALRQVLGTHVSQKGSLVNDKVLRFDFSHNEAMKPEEIRAVEDLVNTQIRRNLPIETNIMDLEAAKAKGAMALFGEKYDERVRVLSMGDFSTELAGGTHASRTGDIGLFRIISESGTAAGVRRIEAVTGEGAIATVHADSDRLSEVAHLLKGDSNNLADKVRSVLERTRQLEKELQQLKEQAAAQESANLSSKAIDVNGVKLLVSELSGVEPKMLRTMVDDLKNQLGSTIIVLATVVEGKVSLIAGVSKDVTDRVKAGELIGMVAQQVGGKGGGRPDMAQAGGTDAAALPAALASVKGWVSAKLQ	190 ± 30 µM	13.7 s⁻¹	71500 M⁻¹ s⁻¹
E. coli AlaRS (Escherichia coli K-12; R561S) (protein) SKSTAEIRQAFLDFFHSKGHQVVASSSLVPHNDPTLLFTNAGMNQFKDVFLGLDKRNYSRATTSQRCVRAGGKHNDLENVGYTARHHTFFEMLGNFSFGDYFKHDAIQFAWELLTSEKWFALPKERLWVTVYESDDEAYEIWEKEVGIPRERIIRIGDNKGAPYASDNFWQMGDTGPCGPCTEIFYDHGDHIWGGPPGSPEEDGDRYIEIWNIVFMQFNRQADGTMEPLPKPSVDTGMGLERIAAVLQHVNSNYDIDLFRTLIQAVAKVTGATDLSNKSLRVIADHIRSCAFLIADGVMPSNENRGYVLRRIIRRAVRHGNMLGAKETFFYKLVGPLIDVMGSAGEDLKRQQAQVEQVLKTEEEQFARTLERGLALLDEELAKLSGDTLDGETAFRLYDTYGFPVDLTADVCRERNIKVDEAGFEAAMEEQRRRAREASGFGADYNAMIRVDSASEFKGYDHLELNGKVTALFVDGKAVDAINAGQEAVVVLDQTPFYAESGGQVGDKGELKGANFSFAVEDTQKYGQAIGHIGKLAAGSLKVGDAVQADVDEARRARISLNHSATHLMHAALRQVLGTHVSQKGSLVNDKVLRFDFSHNEAMKPEEIRAVEDLVNTQIRRNLPIETNIMDLEAAKAKGAMALFGEKYDERVRVLSMGDFSTELCGGTHASRTGDIGLFRIISESGTAAGVRRIEAVTGEGAIATVHADSDRLSEVAHLLKGDSNNLADKVRSVLERTRQLEKELQQLKEQAAAQESANLSSKAIDVNGVKLLVSELSGVEPKMLRTMVDDLKNQLGSTIIVLATVVEGKVSLIAGVSKDVTDRVKAGELIGMVAQQVGGKGGGRPDMAQAGGTDAAALPAALASVKGWVSAKLQ	180 ± 15 µM	20.3 s⁻¹	112000 M⁻¹ s⁻¹
E. coli AlaRS (Escherichia coli K-12; C666A/R561S) (protein) SKSTAEIRQAFLDFFHSKGHQVVASSSLVPHNDPTLLFTNAGMNQFKDVFLGLDKRNYSRATTSQRCVRAGGKHNDLENVGYTARHHTFFEMLGNFSFGDYFKHDAIQFAWELLTSEKWFALPKERLWVTVYESDDEAYEIWEKEVGIPRERIIRIGDNKGAPYASDNFWQMGDTGPCGPCTEIFYDHGDHIWGGPPGSPEEDGDRYIEIWNIVFMQFNRQADGTMEPLPKPSVDTGMGLERIAAVLQHVNSNYDIDLFRTLIQAVAKVTGATDLSNKSLRVIADHIRSCAFLIADGVMPSNENRGYVLRRIIRRAVRHGNMLGAKETFFYKLVGPLIDVMGSAGEDLKRQQAQVEQVLKTEEEQFARTLERGLALLDEELAKLSGDTLDGETAFRLYDTYGFPVDLTADVCRERNIKVDEAGFEAAMEEQRRRAREASGFGADYNAMIRVDSASEFKGYDHLELNGKVTALFVDGKAVDAINAGQEAVVVLDQTPFYAESGGQVGDKGELKGANFSFAVEDTQKYGQAIGHIGKLAAGSLKVGDAVQADVDEARRARISLNHSATHLMHAALRQVLGTHVSQKGSLVNDKVLRFDFSHNEAMKPEEIRAVEDLVNTQIRRNLPIETNIMDLEAAKAKGAMALFGEKYDERVRVLSMGDFSTELAGGTHASRTGDIGLFRIISESGTAAGVRRIEAVTGEGAIATVHADSDRLSEVAHLLKGDSNNLADKVRSVLERTRQLEKELQQLKEQAAAQESANLSSKAIDVNGVKLLVSELSGVEPKMLRTMVDDLKNQLGSTIIVLATVVEGKVSLIAGVSKDVTDRVKAGELIGMVAQQVGGKGGGRPDMAQAGGTDAAALPAALASVKGWVSAKLQ	177 ± 37 µM	13.2 s⁻¹	74300 M⁻¹ s⁻¹
E. coli AlaRS (Escherichia coli K-12) (protein) SKSTAEIRQAFLDFFHSKGHQVVASSSLVPHNDPTLLFTNAGMNQFKDVFLGLDKRNYSRATTSQRCVRAGGKHNDLENVGYTARHHTFFEMLGNFSFGDYFKHDAIQFAWELLTSEKWFALPKERLWVTVYESDDEAYEIWEKEVGIPRERIIRIGDNKGAPYASDNFWQMGDTGPCGPCTEIFYDHGDHIWGGPPGSPEEDGDRYIEIWNIVFMQFNRQADGTMEPLPKPSVDTGMGLERIAAVLQHVNSNYDIDLFRTLIQAVAKVTGATDLSNKSLRVIADHIRSCAFLIADGVMPSNENRGYVLRRIIRRAVRHGNMLGAKETFFYKLVGPLIDVMGSAGEDLKRQQAQVEQVLKTEEEQFARTLERGLALLDEELAKLSGDTLDGETAFRLYDTYGFPVDLTADVCRERNIKVDEAGFEAAMEEQRRRAREASGFGADYNAMIRVDSASEFKGYDHLELNGKVTALFVDGKAVDAINAGQEAVVVLDQTPFYAESGGQVGDKGELKGANFSFAVEDTQKYGQAIGHIGKLAAGSLKVGDAVQADVDEARRARIRLNHSATHLMHAALRQVLGTHVSQKGSLVNDKVLRFDFSHNEAMKPEEIRAVEDLVNTQIRRNLPIETNIMDLEAAKAKGAMALFGEKYDERVRVLSMGDFSTELCGGTHASRTGDIGLFRIISESGTAAGVRRIEAVTGEGAIATVHADSDRLSEVAHLLKGDSNNLADKVRSVLERTRQLEKELQQLKEQAAAQESANLSSKAIDVNGVKLLVSELSGVEPKMLRTMVDDLKNQLGSTIIVLATVVEGKVSLIAGVSKDVTDRVKAGELIGMVAQQVGGKGGGRPDMAQAGGTDAAALPAALASVKGWVSAKLQ	320 ± 150 µM	20.8 s⁻¹	65200 M⁻¹ s⁻¹
E. coli AlaRS (Escherichia coli K-12; C666A) (protein) SKSTAEIRQAFLDFFHSKGHQVVASSSLVPHNDPTLLFTNAGMNQFKDVFLGLDKRNYSRATTSQRCVRAGGKHNDLENVGYTARHHTFFEMLGNFSFGDYFKHDAIQFAWELLTSEKWFALPKERLWVTVYESDDEAYEIWEKEVGIPRERIIRIGDNKGAPYASDNFWQMGDTGPCGPCTEIFYDHGDHIWGGPPGSPEEDGDRYIEIWNIVFMQFNRQADGTMEPLPKPSVDTGMGLERIAAVLQHVNSNYDIDLFRTLIQAVAKVTGATDLSNKSLRVIADHIRSCAFLIADGVMPSNENRGYVLRRIIRRAVRHGNMLGAKETFFYKLVGPLIDVMGSAGEDLKRQQAQVEQVLKTEEEQFARTLERGLALLDEELAKLSGDTLDGETAFRLYDTYGFPVDLTADVCRERNIKVDEAGFEAAMEEQRRRAREASGFGADYNAMIRVDSASEFKGYDHLELNGKVTALFVDGKAVDAINAGQEAVVVLDQTPFYAESGGQVGDKGELKGANFSFAVEDTQKYGQAIGHIGKLAAGSLKVGDAVQADVDEARRARIRLNHSATHLMHAALRQVLGTHVSQKGSLVNDKVLRFDFSHNEAMKPEEIRAVEDLVNTQIRRNLPIETNIMDLEAAKAKGAMALFGEKYDERVRVLSMGDFSTELAGGTHASRTGDIGLFRIISESGTAAGVRRIEAVTGEGAIATVHADSDRLSEVAHLLKGDSNNLADKVRSVLERTRQLEKELQQLKEQAAAQESANLSSKAIDVNGVKLLVSELSGVEPKMLRTMVDDLKNQLGSTIIVLATVVEGKVSLIAGVSKDVTDRVKAGELIGMVAQQVGGKGGGRPDMAQAGGTDAAALPAALASVKGWVSAKLQ	263 ± 115 µM	16.8 s⁻¹	63800 M⁻¹ s⁻¹
E. coli AlaRS (Escherichia coli K-12; D551Y) (protein) SKSTAEIRQAFLDFFHSKGHQVVASSSLVPHNDPTLLFTNAGMNQFKDVFLGLDKRNYSRATTSQRCVRAGGKHNDLENVGYTARHHTFFEMLGNFSFGDYFKHDAIQFAWELLTSEKWFALPKERLWVTVYESDDEAYEIWEKEVGIPRERIIRIGDNKGAPYASDNFWQMGDTGPCGPCTEIFYDHGDHIWGGPPGSPEEDGDRYIEIWNIVFMQFNRQADGTMEPLPKPSVDTGMGLERIAAVLQHVNSNYDIDLFRTLIQAVAKVTGATDLSNKSLRVIADHIRSCAFLIADGVMPSNENRGYVLRRIIRRAVRHGNMLGAKETFFYKLVGPLIDVMGSAGEDLKRQQAQVEQVLKTEEEQFARTLERGLALLDEELAKLSGDTLDGETAFRLYDTYGFPVDLTADVCRERNIKVDEAGFEAAMEEQRRRAREASGFGADYNAMIRVDSASEFKGYDHLELNGKVTALFVDGKAVDAINAGQEAVVVLDQTPFYAESGGQVGDKGELKGANFSFAVEDTQKYGQAIGHIGKLAAGSLKVGDAVQAYVDEARRARIRLNHSATHLMHAALRQVLGTHVSQKGSLVNDKVLRFDFSHNEAMKPEEIRAVEDLVNTQIRRNLPIETNIMDLEAAKAKGAMALFGEKYDERVRVLSMGDFSTELCGGTHASRTGDIGLFRIISESGTAAGVRRIEAVTGEGAIATVHADSDRLSEVAHLLKGDSNNLADKVRSVLERTRQLEKELQQLKEQAAAQESANLSSKAIDVNGVKLLVSELSGVEPKMLRTMVDDLKNQLGSTIIVLATVVEGKVSLIAGVSKDVTDRVKAGELIGMVAQQVGGKGGGRPDMAQAGGTDAAALPAALASVKGWVSAKLQ	260 ± 76 µM	11.9 s⁻¹	46000 M⁻¹ s⁻¹
